Reference: the supplement of paper PMC11246515
± gives the standard deviation of the averaged measurements.

Assay: total protein half-life in vivo (active degradation + dilution); higher = more stable protein
[1] = E. coli NCM3722 delta-clpP delta-lon delta-hslV, growth: N-lim chemostat, doubling time 6 h
[2] = E. coli NCM3722 delta-clpP, growth: N-lim chemostat, doubling time 6 h
[3] = E. coli NCM3722 delta-lon, growth: N-lim chemostat, doubling time 6 h
[4] = E. coli NCM3722 delta-smpB, growth: N-lim chemostat, doubling time 6 h
[5] = wild type E. coli NCM3722, growth: C-lim chemostat, doubling time 3 h
[6] = wild type E. coli NCM3722, growth: C-lim chemostat, doubling time 12 h
[7] = wild type E. coli NCM3722, growth: N-lim chemostat, doubling time 6 h
[8] = wild type E. coli NCM3722, growth: N-lim chemostat, doubling time 12 h
[9] = wild type E. coli NCM3722, growth: P-lim chemostat, doubling time 6 h
[10] = wild type E. coli NCM3722, growth: P-lim chemostat, doubling time 12 h
[11] = E. coli NCM3722 delta-hslV, growth: N-lim chemostat, doubling time 6 h
[12] = wild type E. coli NCM3722, growth: C-lim chemostat, doubling time 6 h

Sequence	total protein half-life in vivo [1] [h]	total protein half-life in vivo [2] [h]	total protein half-life in vivo [3] [h]	total protein half-life in vivo [4] [h]	total protein half-life in vivo [5] [h]	total protein half-life in vivo [6] [h]	total protein half-life in vivo [7] [h]	total protein half-life in vivo [8] [h]	total protein half-life in vivo [9] [h]	total protein half-life in vivo [10] [h]	total protein half-life in vivo [11] [h]	total protein half-life in vivo [12] [h]
MLNKLSLLLKDAGISLTDHQKNQLIAYVNMLHKWNKAYNLTSVRDPNEMLVRHILDSIVVAPYLQGERFIDVGTGPGLPGIPLSIVRPEAHFTLLDSLGKRVRFLRQVQHELKLENIEPVQSRVEEFPSEPPFDGVISRAFASLNDMVSWCHHLPGEQGRFYALKGQMPEDEIALLPEEYQVESVVKLQVPALDGERHLVVIKANKI [P0A6U5]	5.85 ± 1.7	4.636 ± 0.041	5.33 ± 0.68	4.48 ± 0.18	3.51 ± 0.68	10.5 ± 1.6	5.09 ± 0.33	8.45 ± 0.31	5.87 ± 0.69	13.1 ± 2	–	–
MLAFCRSSLKSKKYIIILLALAAIAGLGTHAAWSSNGLPRIDNKTLARLAQQHPVVVLFRHAERCDRSTNQCLSDKTGITVKGTQDARELGNAFSADIPDFDLYSSNTVRTIQSATWFSAGKKLTVDKRLLQCGNEIYSAIKDLQSKAPDKNIVIFTHNHCLTYIAKDKRDATFKPDYLDGLVMHVEKGKVYLDGEFVNH	> 8	5.63	–	–	3 ± 1.2	–	4.21 ± 2.1	–	5.09 ± 0.5	–	4.99 ± 1.1	4.93 ± 1.4
MQLNKVLKGLMIALPVMAIAACSSNKNASNDGSEGMLGAGTGMDANGGNGNMSSEEQARLQMQQLQQNNIVYFDLDKYDIRSDFAQMLDAHANFLRSNPSYKVTVEGHADERGTPEYNISLGERRANAVKMYLQGKGVSADQISIVSYGKEKPAVLGHDEAAYSKNRRAVLVY [P0A912]	6.43 ± 0.059	6.28 ± 0.35	6.35 ± 0.55	5.44 ± 0.29	3.09 ± 0.057	10.7 ± 1.1	6.17 ± 0.19	12.6 ± 0.94	5.9 ± 0.72	11.3 ± 1.8	6.46 ± 0.39	5.6 ± 0.32
MDMDLNNRLTEDETLEQAYDIFLELAADNLDPADVLLFNLQFEERGGAELFDPAEDWQEHVDFDLNPDFFAEVVIGLADSEDGEINDVFARILLCREKDHKLCHIIWRE [P0A8L7]	5.64 ± 0.096	4.35 ± 0.49	5.055 ± 0.0098	3.64	2.74 ± 0.24	8.89	3.83	7.29 ± 0.12	> 8	11.2 ± 3.8	3.78	5.72 ± 0.71
MKIELTVNGLKIQAQYQNEEIENVHKPLLHMLAALQTVNPQRRTVVFLCAPPGTGKSTLTTFWEYLAQQDPELPAIQTLPMDGFHHYNSWLDAHQLRPFKGAPETFDVAKLTENLRQVVEGDCTWPQYDRQKHDPVEDALHVTAPLVIVEGNWLLLDDEKWLELASFCDFSIFIHAPAQILRERLISRKIAGGLTRQVAEAFYARTDGPNVERVLMNSRQANLIVEMTEEGRYHFTS	5.96	1.31	–	–	–	–	–	–	–	–	–	–
MNNMNVIIADDHPIVLFGIRKSLEQIEWVNVVGEFEDSTALINNLPKLDAHVLITDLSMPGDKYGDGITLIKYIKRHFPSLSIIVLTMNNNPAILSAVLDLDIEGIVLKQGAPTDLPKALAALQKGKKFTPESVSRLLEKISAGGYGDKRLSPKESEVLRLFAEGFLVTEIAKKLNRSIKTISSQKKSAMMKLGVENDIALLNYLSSVTLSPADKD [P0DMC7]	5.91 ± 1.9	4.22 ± 1.2	3.758 ± 0.014	2.9 ± 0.3	2.71 ± 0.096	6.66 ± 1.3	3.01 ± 0.38	4.16 ± 0.46	3.42 ± 0.59	5.56 ± 0.093	2.69 ± 0.2	4.35 ± 0.097
MRVLLFLLLSLFMLPAFSADNLLRWHDAQHFTVQASTPLKAKRAWKLCALYPSLKDSYWLSLNYGMQEAARRYGVDLKVLEAGGYSQLATQQAQIDQCKQWGAEAILLGSSTTSFPDLQKQVASLPVIELVNAIDAPQVKSRVGVPWFQMGYQPGRYLVQWAHGKPLNVLLMPGPDNAGGSKEMVEGFRAAIAGSPVRIVDIALGDNDIEIQRNLLQEMLERHPEIDVVAGTAIAAEAAMGEGRNLKTPLTVVSFYLSHQVYRGLKRGRVIMAASDQMVWQGELAVEQAIRQLQGQSVSDNVSPPILVLTPKNADREHIRRSLSPGGFRPVYFYQHTSAAKK	6.15 ± 0.33	5.43 ± 0.75	4.15 ± 1.5	3.08	–	4.04	3.87 ± 1.8	9.91 ± 3.2	4.02	6.77 ± 2.5	3.15 ± 0.62	–
MKIISKMLVGALALAVTNVYAAELMTKAEFEKVESQYEKIGDISTSNEMSTADAKEDLIKKADEKGADVLVLTSGQTDNKIHGTANIYKKK	5.25 ± 1.4	5.09 ± 0.88	5.4 ± 0.39	4.12 ± 0.067	2.86 ± 0.34	5.78 ± 0.63	5.28 ± 0.32	9.55 ± 3.1	4.64 ± 1.1	9.62 ± 0.2	5.83 ± 1	4.78 ± 0.76
